{"source": "paper doi:10.1101/384248", "binders": {"B1": {"name": "MDMX, O15151 1-490 (natural protein)", "chain": "MTSFSTSAQCSTSDSACRISPGQINQVRPKLPLLKILHAAGAQGEMFTVKEVMHYLGQYIMVKQLYDQQEQHMVYCGGDLLGELLGRQSFSVKDPSPLYDMLRKNLVTLATATTDAAQTLALAQDHSMDIPSQDQLKQSAEESSTSRKRTTEDDIPTLPTSEHKCIHSREDEDLIENLAQDETSRLDLGFEEWDVAGLPWWFLGNLRSNYTPRSNGSTDLQTNQDVGTAIVSDTTDDLWFLNESVSEQLGVGIKVEAADTEQTSEEVGKVSDKKVIEVGKNDDLEDSKSLSDDTDVEVTSEDEWQCTECKKFNSPSKRYCFRCWALRKDWYSDCSKLTHSLSTSDITAIPEKENEGNDVPDCRRTISAPVVRPKDAYIKKENSKLFDPCNSVEFLDLAHSSESQETISSMGEQLDNLSEQRTDTENMEDCQNLLKPCSLCEKRPRDGNIIHGRTGHLVTCFHCARRLKKAGASCPICKKEIQLVIKVFIA"}}, "target": "p53 (human (endogenous in HCT 116, MCF7, U2OS)), P04637", "sequence (P04637 whole entry)": "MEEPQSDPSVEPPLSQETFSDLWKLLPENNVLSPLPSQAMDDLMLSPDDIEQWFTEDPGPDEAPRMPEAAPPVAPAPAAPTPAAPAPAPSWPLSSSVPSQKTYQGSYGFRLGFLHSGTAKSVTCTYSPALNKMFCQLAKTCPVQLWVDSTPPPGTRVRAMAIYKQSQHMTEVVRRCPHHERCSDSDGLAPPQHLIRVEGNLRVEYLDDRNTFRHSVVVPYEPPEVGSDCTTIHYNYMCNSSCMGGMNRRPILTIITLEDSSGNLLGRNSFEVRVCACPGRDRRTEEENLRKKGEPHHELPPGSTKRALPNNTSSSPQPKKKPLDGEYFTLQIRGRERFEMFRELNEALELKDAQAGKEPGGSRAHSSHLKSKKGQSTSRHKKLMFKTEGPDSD", "experiment": "co-IP", "conditions": "remark: other sources report otherwise"}
{"binder": "B1", "values": [{"measurement": "percent decrease of MDMX bound to p53 in cells treated with RITA", "result": 43, "unit": "%"}]}
